# Measurements as given in the supplement of paper PMC10567573.
# B1: OAS1 (parent)
# chain: YIGTHEYPHFSHRPSTLQAASTPQ
# B2: FBXO34 (parent)
# chain: ASSVESTLPVLEASSWKKQVSHDF
# Variants of: B1
# Test: protein stability index of a GFP-peptide fusion (GPS, HEK-293T) (PSI 1-6); higher = more stable
# Conditions: c terminus: a fixed tail appended
# 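Also: lentivirally expressed fusions sorted by FACS into six bins by GFP to DsRed ratio, PSI derived from sequencing read proportions per bin multiplied by bin number.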
row,Variant,protein stability index
1,YIGTHEYPHFSHRPSHLQAASTPQ [T16H],2.02
2,YIGTHEYPHFSHRPSVLQAASTPQ [T16V],1.73
3,YIGTHEYPHFSHRPSPLQAASTPQ [T16P],2.14
4,YIGTHEYPHFSHRPSDLQAASTPQ [T16D],2.13
5,YIGTHEYPHFSHRPSGLQAASTPQ [T16G],1.62
6,YIGTHEYPHFSHRPSFLQAASTPQ [T16F],1.92
7,YIGTHEYPHFSHRPSSLQAASTPQ [T16S],2.34
8,YIGTHEYPHFSHRPSWLQAASTPQ [T16W],2.23
9,YIGTHEYPHFSHRPSNLQAASTPQ [T16N],1.62
10,YIGTHEYPHFSHRPSILQAASTPQ [T16I],1.6
11,YIGTHEYPHFSHRPSELQAASTPQ [T16E],2.46
12,YIGTHEYPHFSHRPSRLQAASTPQ [T16R],2.4
13,YIGTHEYPHFSHRPSLLQAASTPQ [T16L],2.22
14,YIGTHEYPHFSHRPSQLQAASTPQ [T16Q],2.3
15,YIGTHEYPHFSHRPSCLQAASTPQ [T16C],1.68
16,YIGTHEYPHFSHRPSYLQAASTPQ [T16Y],1.98
17,YIGTHEYPHFSHRPSALQAASTPQ [T16A],2.29
18,YIGTHEYPHFSHRPSMLQAASTPQ [T16M],1.42
19,YIGTHEYPHFSHRPSKLQAASTPQ [T16K],2.08
20,YIGTHEYPHFSHRPSTLQPASTPQ [A19P],2.11
21,YIGTHEYPHFSHRPSTLQKASTPQ [A19K],1.68
22,YIGTHEYPHFSHRPSTLQCASTPQ [A19C],2.07
23,YIGTHEYPHFSHRPSTLQIASTPQ [A19I],2.04
24,YIGTHEYPHFSHRPSTLQDASTPQ [A19D],2.3
25,YIGTHEYPHFSHRPSTLQYASTPQ [A19Y],2.42
26,YIGTHEYPHFSHRPSTLQLASTPQ [A19L],1.85

row,Variant,protein stability index
1,YIGTHEYPHFSHRPSTLQFASTPQ [A19F],1.99
2,YIGTHEYPHFSHRPSTLQMASTPQ [A19M],2.15
3,YIGTHEYPHFSHRPSTLQTASTPQ [A19T],1.72
4,YIGTHEYPHFSHRPSTLQGASTPQ [A19G],1.98
5,YIGTHEYPHFSHRPSTLQQASTPQ [A19Q],2.04
6,YIGTHEYPHFSHRPSTLQSASTPQ [A19S],1.9
7,YIGTHEYPHFSHRPSTLQWASTPQ [A19W],1.28
8,YIGTHEYPHFSHRPSTLQEASTPQ [A19E],2.58
9,YIGTHEYPHFSHRPSTLQHASTPQ [A19H],1.89
10,YIGTHEYPHFSHRPSTLQVASTPQ [A19V],1.81
11,YIGTHEYPHFSHRPSTLQNASTPQ [A19N],1.9
12,YIGTHEYPHFSHRPSTLQRASTPQ [A19R],2.29
13,YIGTHEYPHFSHRPSTLWAASTPQ [Q18W],2.75
14,YIGTHEYPHFSHRPSTLGAASTPQ [Q18G],2.06
15,YIGTHEYPHFSHRPSTLPAASTPQ [Q18P],1.81
16,YIGTHEYPHFSHRPSTLIAASTPQ [Q18I],1.94
17,YIGTHEYPHFSHRPSTLHAASTPQ [Q18H],2.38
18,YIGTHEYPHFSHRPSTLYAASTPQ [Q18Y],2.37
19,YIGTHEYPHFSHRPSTLRAASTPQ [Q18R],1.95
20,YIGTHEYPHFSHRPSTLKAASTPQ [Q18K],2.04
21,YIGTHEYPHFSHRPSTLSAASTPQ [Q18S],1.65
22,YIGTHEYPHFSHRPSTLAAASTPQ [Q18A],2.85
23,YIGTHEYPHFSHRPSTLDAASTPQ [Q18D],1.71
24,YIGTHEYPHFSHRPSTLCAASTPQ [Q18C],2.08
25,YIGTHEYPHFSHRPSTLTAASTPQ [Q18T],1.9
26,YIGTHEYPHFSHRPSTLNAASTPQ [Q18N],2.34

row,Variant,protein stability index
1,YIGTHEYPHFSHRPSTLLAASTPQ [Q18L],2.08
2,YIGTHEYPHFSHRPSTLFAASTPQ [Q18F],2.25
3,YIGTHEYPHFSHRPSTLVAASTPQ [Q18V],1.99
4,YIGTHEYPHFSHRPSTLEAASTPQ [Q18E],2.22
5,YIGTHEYPHFSHRPSTLMAASTPQ [Q18M],1.74
6,YIGTHEYPHFSHRPSTLQAASQPQ [T22Q],2.31
7,YIGTHEYPHFSHRPSTLQAASGPQ [T22G],1.59
8,YIGTHEYPHFSHRPSTLQAASYPQ [T22Y],1.71
9,YIGTHEYPHFSHRPSTLQAASRPQ [T22R],1.68
10,YIGTHEYPHFSHRPSTLQAASHPQ [T22H],1.6
11,YIGTHEYPHFSHRPSTLQAASMPQ [T22M],2.27
12,YIGTHEYPHFSHRPSTLQAASLPQ [T22L],1.78
13,YIGTHEYPHFSHRPSTLQAASEPQ [T22E],1.8
14,YIGTHEYPHFSHRPSTLQAASIPQ [T22I],2.13
15,YIGTHEYPHFSHRPSTLQAASDPQ [T22D],2.64
16,YIGTHEYPHFSHRPSTLQAASVPQ [T22V],1.93
17,YIGTHEYPHFSHRPSTLQAASFPQ [T22F],1.93
18,YIGTHEYPHFSHRPSTLQAASCPQ [T22C],1.62
19,YIGTHEYPHFSHRPSTLQAASKPQ [T22K],2.35
20,YIGTHEYPHFSHRPSTLQAASNPQ [T22N],2.1
21,YIGTHEYPHFSHRPSTLQAASSPQ [T22S],1.38
22,YIGTHEYPHFSHRPSTLQAASAPQ [T22A],2.51
23,YIGTHEYPHFSHRPSTLQAASWPQ [T22W],1.53
24,YIGTHEYPHFSHRPSTLQAASPPQ [T22P],2.17

# Variants of: B2
# Test: as above
# Conditions: c terminus: a fixed tail appended
row,Variant,protein stability index
1,GSSVESTLPVLEASSWKKQVSHDF [A1G],2.99
2,NSSVESTLPVLEASSWKKQVSHDF [A1N],2.9
3,MSSVESTLPVLEASSWKKQVSHDF [A1M],2.71
4,YSSVESTLPVLEASSWKKQVSHDF [A1Y],1.78
5,CSSVESTLPVLEASSWKKQVSHDF [A1C],2.1
6,SSSVESTLPVLEASSWKKQVSHDF [A1S],3.36
7,RSSVESTLPVLEASSWKKQVSHDF [A1R],2.97
8,VSSVESTLPVLEASSWKKQVSHDF [A1V],2.27
9,DSSVESTLPVLEASSWKKQVSHDF [A1D],3.32
10,LSSVESTLPVLEASSWKKQVSHDF [A1L],3.35
11,ESSVESTLPVLEASSWKKQVSHDF [A1E],2.83
12,QSSVESTLPVLEASSWKKQVSHDF [A1Q],2.44
13,FSSVESTLPVLEASSWKKQVSHDF [A1F],2.11
14,TSSVESTLPVLEASSWKKQVSHDF [A1T],2.79
15,KSSVESTLPVLEASSWKKQVSHDF [A1K],2.1
16,ISSVESTLPVLEASSWKKQVSHDF [A1I],1.95
17,PSSVESTLPVLEASSWKKQVSHDF [A1P],2.64
18,AASVESTLPVLEASSWKKQVSHDF [S2A],2.81
